These results are taken from patent US20240166745A1 (Eli Lilly, published 2024).

Test [1] has as its target T1, Cynomolgus LAG-3-ECD (cynomolgus).
T1 construct: as printed it starts with the N-terminal leader (MWEAQ...) and ends with a His tag; also called Cynomolgus LAG-3 ECD-His
T1 chain: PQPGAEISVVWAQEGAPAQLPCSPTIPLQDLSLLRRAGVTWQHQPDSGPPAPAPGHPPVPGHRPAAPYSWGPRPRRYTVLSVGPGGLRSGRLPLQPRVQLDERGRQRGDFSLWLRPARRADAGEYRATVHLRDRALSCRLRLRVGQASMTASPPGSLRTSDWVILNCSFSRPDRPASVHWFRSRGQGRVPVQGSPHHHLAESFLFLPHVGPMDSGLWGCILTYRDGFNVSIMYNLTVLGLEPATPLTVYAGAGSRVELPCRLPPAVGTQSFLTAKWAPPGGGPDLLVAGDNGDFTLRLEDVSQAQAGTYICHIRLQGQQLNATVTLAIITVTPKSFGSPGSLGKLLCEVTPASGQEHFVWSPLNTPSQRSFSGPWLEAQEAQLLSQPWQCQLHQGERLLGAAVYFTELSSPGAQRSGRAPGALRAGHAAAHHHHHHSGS
Briefly: SPR (Biacore T200), antibody captured on PrismA chip, ECD as analyte, 37° C. Here is the method: (§1) A Biacore® T200 (Cytiva, Marlborough, MA) was used to measure the binding kinetics and affinities of the LAG-3 antibody to the LAG-3 soluble extracellular domain (ECD) and the bispecific antibody to soluble LAG-3-ECD and PD-1-ECD (human: Sino Biologicals, Cat #10377-H08H; cynomolgus: Sino Biologicals, Cat #90311-C08H) by surface plasmon resonance. Samples were diluted in HBS-EP+ (10 mM Hepes, 150 mM NaCl, 3 mM EDTA, 0.05% Tween-20, pH 7.6) (Teknova Cat #H8022) with 5 g/L of BSA (Jackson ImmunoResearch Cat #001-000-161) running buffer. PrismA Series S Sensor chip (Cat #29650263) is purchased from Cytiva.
(§2) Binding was evaluated using multi-cycle kinetics by an antibody capture method. Each cycle was performed at either 37° C. or 25° C. at a flow rate of 10 μL/min for antibody capture to the PrismA chip and 100 μL/min for analyte association (with 120 sec contact time) and dissociation (900 sec). Each cycle consisted of the following steps: injection of bispecific antibody at 1 μg/mL in HBS-EP+ targeting Rmax values of 125 RU (LAG-3 arm), 294 RU (PD-1 arm) and 63 RU (LAG-3 antibody) on flow cell, injection of analyte in HBS-EP+(concentration range of 62.5 nM to 0.25 nM by two-fold serial dilution for both human PD-1-ECD-His (SEQ ID NO: 40) and human LAG-3-His (SEQ ID NO: 42) followed by 900-second dissociation phase, and regeneration using 10 μL of 10 mM glycine hydrochloride, pH 1.5 over a 60-second contact time utilizing a 10 μL/min flow rate. All analyte concentrations were determined utilizing monomeric molecular weight (MW) values. Association rates (kₒₙ) and dissociation rates (koff) for LAG-3-ECD and PD-1-ECD were evaluated using double referencing by flow-cell one reference subtraction in addition to 0 nM blank subtraction and fit to “1:1 (Langmuir) binding” model in the BIAevaluation software version 4.1. The dissociation constant (KD) was calculated from the binding kinetics according to the relationship KD=Koff/Kₒₙ. Stoichiometry=[RUₘₐₓ/RUcaptured]/[MWanalyte/MWantibody] where MWAntibodyA is 150 kDa. Values are reported as mean±standard deviation.

Test [2] deals with T2, cell membrane-expressed human LAG-3/PD-1 (human, UniProt P18627 23-525; Q15116 25-288).
T2 construct: also called Human CD4
T2 sequence (Q15116 25-288 limits assumed, one chain of several): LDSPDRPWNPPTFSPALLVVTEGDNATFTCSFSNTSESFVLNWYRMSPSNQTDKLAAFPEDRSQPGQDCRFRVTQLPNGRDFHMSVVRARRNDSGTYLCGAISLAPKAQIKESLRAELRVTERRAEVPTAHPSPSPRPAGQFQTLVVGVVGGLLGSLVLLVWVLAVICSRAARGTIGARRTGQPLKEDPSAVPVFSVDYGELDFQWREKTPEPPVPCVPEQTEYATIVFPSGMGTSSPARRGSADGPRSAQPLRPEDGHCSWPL
The test is described as follows: flow cytometry, labeled antibody on anti-CD3 activated human PBMC, CD4 T cells, percent of cells bound (mean +/- SEM, n=3). Here is the method:
(§3) Cells were incubated with 10-12 point, 3-fold serial dilutions of the respective labeled antibody (Invitrogen #S20026, Invitrogen #C20029), starting at 30 ug/mL, in PBS+2% FCS for 30 minutes at 4° C. and containing the following: CD4 eBioscience #12-0047-42 or Biolegend #344634; CD8 eBioscience #25-0088-42; CD3 eBioscience 56-0038-82 for human cells and BD #557917 for cyno cells; CD33 eBioscience 45-0338-42 for human cells; Live/Dead eBioscience #65-0865-18. After washing thoroughly, cells were processed on a BD Fortessa or Fortessa X20 cytometer, and data were analyzed with Flowjo software (BD Biosciences). Percent of cells bound by the respective antibody is quantified and graphed with Prism (Graphpad, San Diego, CA).

In test [3] the target is T3, cell membrane-expressed cynomolgus LAG-3/PD-1 (cynomolgus).
T3 construct: whole, on cells; Two separate membrane proteins on the same cells, not a complex; also called Cyno CD4
T3 sequence (P79185 26-458): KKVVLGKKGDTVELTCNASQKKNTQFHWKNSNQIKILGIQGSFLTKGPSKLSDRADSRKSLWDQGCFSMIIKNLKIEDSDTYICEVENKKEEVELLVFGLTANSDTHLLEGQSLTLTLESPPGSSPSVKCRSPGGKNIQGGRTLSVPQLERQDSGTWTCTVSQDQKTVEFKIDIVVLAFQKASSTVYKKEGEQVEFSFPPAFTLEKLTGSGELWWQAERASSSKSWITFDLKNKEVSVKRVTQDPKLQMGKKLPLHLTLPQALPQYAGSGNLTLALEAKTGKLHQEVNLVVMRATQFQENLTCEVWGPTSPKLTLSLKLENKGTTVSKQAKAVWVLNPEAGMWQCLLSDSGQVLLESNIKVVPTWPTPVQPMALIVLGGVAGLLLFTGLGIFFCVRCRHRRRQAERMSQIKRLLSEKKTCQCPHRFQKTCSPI
Briefly: flow cytometry, labeled antibody on anti-CD3 activated cynomolgus PBMC, CD4 T cells, percent of cells bound (mean +/- SEM, n=3). Here is the method: as §3

For test [4], the target named is PathHunter U2OS PD-1/LAG-3 dimerization cell line (human PD-1 aa 1-199-EA and human LAG-3 aa 1-477-PK) (human). The test is described as follows: cell-based or functional assay.
PathHunter U2OS PD-1/LAG-3 dimerization cell line (human PD-1 aa 1-199-EA and human LAG-3 aa 1-477-PK) (human), sequence (Q15116 1-199, chain 1 of 2): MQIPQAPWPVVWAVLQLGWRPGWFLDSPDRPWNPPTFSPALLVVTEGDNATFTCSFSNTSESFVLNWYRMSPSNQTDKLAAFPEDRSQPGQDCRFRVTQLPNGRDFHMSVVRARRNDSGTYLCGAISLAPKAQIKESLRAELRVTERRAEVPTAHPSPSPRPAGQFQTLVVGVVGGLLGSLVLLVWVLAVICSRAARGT
PathHunter U2OS PD-1/LAG-3 dimerization cell line (human PD-1 aa 1-199-EA and human LAG-3 aa 1-477-PK) (human), sequence (P18627 1-477, chain 2 of 2, further chain): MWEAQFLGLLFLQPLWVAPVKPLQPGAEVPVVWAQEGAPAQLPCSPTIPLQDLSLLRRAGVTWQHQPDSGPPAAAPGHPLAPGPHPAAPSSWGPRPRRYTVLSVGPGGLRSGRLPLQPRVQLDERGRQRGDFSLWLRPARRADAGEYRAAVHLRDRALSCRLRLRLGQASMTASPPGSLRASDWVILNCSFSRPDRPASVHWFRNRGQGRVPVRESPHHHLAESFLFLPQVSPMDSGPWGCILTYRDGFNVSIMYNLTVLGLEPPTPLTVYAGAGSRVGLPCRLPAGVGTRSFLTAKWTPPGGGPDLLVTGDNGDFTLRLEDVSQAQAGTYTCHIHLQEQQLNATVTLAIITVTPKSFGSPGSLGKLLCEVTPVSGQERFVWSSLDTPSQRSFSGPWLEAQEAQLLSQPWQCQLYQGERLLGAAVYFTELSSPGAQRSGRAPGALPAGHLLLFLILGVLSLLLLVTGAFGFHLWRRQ
Test [5] has as its target T3, cell membrane-expressed cynomolgus …. Briefly: flow cytometry, labeled antibody on anti-CD3 activated cynomolgus PBMC, CD8 T cells, percent of cells bound (mean +/- SEM, n=3). Here is the method: as §3
For test [6], the target named is T2, cell membrane-expressed human LAG-3/PD-1. Briefly: flow cytometry, labeled antibody on anti-CD3 activated human PBMC, CD8 T cells, percent of cells bound (mean +/- SEM, n=3). As for the experimental part:
as §3

Test [7] has as its target T1, Cynomolgus LAG-3-ECD. Briefly: SPR (Biacore T200), antibody captured on PrismA chip, ECD as analyte, 25° C. As for the experimental part: as §1, §2
A further test addresses T4, Human PD-1 ECD-His (human, UniProt Q15116 25-167).
T4 construct: Soluble analyte in SPR; the entry includes the His tag
The description is as above. Here is the method: as §1, §2

T4 sequence (Q15116 other isoform, or with tags, fused parts or gaps): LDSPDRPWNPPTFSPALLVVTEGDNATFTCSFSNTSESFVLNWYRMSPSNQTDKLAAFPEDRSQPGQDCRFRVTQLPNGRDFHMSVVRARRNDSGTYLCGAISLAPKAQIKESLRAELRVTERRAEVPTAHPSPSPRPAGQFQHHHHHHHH

B1: Antibody A (bispecific antibody, human IgG1, kappa, lambda)
heavy 1: not shown
light 1: DIVMTQTPLSLPVTPGEPASISCRSSQSLLDSAEGSTYLDWFLRKPGDSPQLLIYTLSYRASGVPDRFSGSGSGTDFTLKISRVEAEDVGVYYCMQRVEFPYTFGQGTKVEIKRTVAAPSVFIFPPSKEQLKSGTASVVCLLNNFYPREAKVQWKVDNALQSGNSQESVTEQDSKDSTYSLSSTLTLSKADYEKHKVYACEVTHQGLSSPVTKSFNRGEC
heavy 2: QVQLVQSGAEVKKPGASVKVSCKVSGYSLSKYDMSWVRKAPGKGLEWMGIIYTSGYTDYAQEFQGRVTMTEDTSTDTAYMELSSLRSEDTAVYYCATGNPYYTNGFNSWGQGTLVTVSSASTKGPSVFPLAPSSKSTSGGTAALGCLVKDYFPEPVTVSWNSGALTSGVATGPAVLQSSGLYSLSSVVTVPSSSLGTQTYICNVNHKPSNTKVDKRVEPKSCDKTHTCPPCPAPELLGGPSVFLFPPKPKDTLMISRTPEVTCVVVDVSHEDPEVKFNWYVDGVEVHNAKTKPREEQYNSTYRVVSVLTVLHQDWLNGKEYKCKVSNKALPAPIEKTISKAKGQPREPQVYTLPPSREEMTDNQVSLTCLVKGFYPSDIAVEWESNGQPENNYKTTPPVLMSDGSFFLASKLTVDKSRWQQGNVFSCSVMHEALHNHYTQKSLSLSPGK
light 2: RIQMTQSPSSLSASVGDRVTITCQASQSPNNLLAWYQDKPGKAPKLLIYGASDLPSGVPSRFSGSGSGTDFTLTISSLQPEDFATYYCQNNYYVGPVSYAFGGGTKVEIKGQPKAAPSVTLFPPSSEELQANKATLVCYISDFYPGAVTVAWKADSSPVKAGVETTTPSKQSNNKYAAWSYLSLTPEQWKSHRSYSCQVTHEGSTVEKTVAPTEC
notes: IgG-like bispecific with one LAG-3 arm and one PD-1 arm; also called human LAG-3/human PD-1 dual agonist bispecific antibody
As for B1, the Kd is 0.51 nM with Cynomolgus LAG-3-ECD [1], 0.031 nM in the test with Cynomolgus LAG-3-ECD [7] and 0.76 nM with Human PD-1 ECD-His. Also, the results for the koff in the test with Cynomolgus LAG-3-ECD [1], with Cynomolgus LAG-3-ECD [7] and with Human PD-1 ECD-His were 0.01 s⁻¹, 0.0017 s⁻¹ and 0.00057 s⁻¹, respectively. Further, the kon with Cynomolgus LAG-3-ECD [1] stood at 2e+07 M⁻¹ s⁻¹; with Cynomolgus LAG-3-ECD [7], 5.4e+07 M⁻¹ s⁻¹. Also, the EC50 in test [2] is 0.0357 µg/mL; in test [3], 0.0293 µg/mL; in test [5] it was 0.0167 µg/mL; in test [6], 0.0068 µg/mL. Further, the “EC50 for induction of PD-1 and LAG-3 dimerization (enzyme fragment complementation, luminescence)” value in test [4] came out at 2.97 nM.

B2: Antibody B (bispecific antibody, human IgG1, kappa, lambda)
heavy 1: not shown
light 1: DIVMTQTPLSLPVTPGEPASISCRSSQSLLDSAEGSTYLDWFLRKPGDSPQLLIYTLSYRASGVPDRFSGSGSGTDFTLKISRVEAEDVGVYYCMQRVEFPYTFGQGTKVEIKRTVAAPSVFIFPPSKEQLKSGTASVVCLLNNFYPREAKVQWKVDNALQSGNSQESVTEQDSKDSTYSLSSTLTLSKADYEKHKVYACEVTHQGLSSPVTKSFNRGEC
heavy 2: QVQLVQSGAEVKKPGASVKVSCKVSGYSLSKYDMSWVRKAPGKGLEWMGIIYTSGYTDYAQEFQGRVTMTEDTSTDTAYMELSSLRSEDTAVYYCATGNPYYTNGFNSWGQGTLVTVSSASTKGPSVFPLAPSSKSTSGGTAALGCLVKDYFPEPVTVSWNSGALTSGVATGPAVLQSSGLYSLSSVVTVPSSSLGTQTYICNVNHKPSNTKVDKRVEPKSCDKTHTCPPCPAPELLGGPSVFLFPPKPKDTLMISRTPEVTCVVVDVSHEDPEVKFNWYVDGVEVHNAKTKPREEQYNSTYRVVSVLTVLHQDWLNGKEYKCAVSNKALPAPIEKTISKAKGQPREPQVYTLPPSREEMTDNQVSLTCLVKGFYPSDIAVEWESNGQPENNYKTTPPVLMSDGSFFLASKLTVDKSRWQQGNVFSCSVMHEALHNHYTQKSLSLSPGK
light 2: RIQMTQSPSSLSASVGDRVTITCQASQSPNNLLAWYQDKPGKAPKLLIYGASDLPSGVPSRFSGSGSGTDFTLTISSLQPEDFATYYCQNNYYVGPVSYAFGGGTKVEIKGQPKAAPSVTLFPPSSEELQANKATLVCYISDFYPGAVTVAWKADSSPVKAGVETTTPSKQSNNKYAAWSYLSLTPEQWKSHRSYSCQVTHEGSTVEKTVAPTEC
notes: also called human LAG-3/human PD-1 dual agonist bispecific antibody
For the molecule B2, the Kd came out at 0.48 nM with Cynomolgus LAG-3-ECD [1], 0.031 nM in the test with Cynomolgus LAG-3-ECD [7] and 0.76 nM with Human PD-1 ECD-His. The koff in the test with Cynomolgus LAG-3-ECD [1] amounted to 0.0098 s⁻¹; with Cynomolgus LAG-3-ECD [7], 0.0017 s⁻¹; in the test with Human PD-1 ECD-His it was 0.00058 s⁻¹. The kon with Cynomolgus LAG-3-ECD [1] amounted to 2e+07 M⁻¹ s⁻¹; with Cynomolgus LAG-3-ECD [7] it was 5.5e+07 M⁻¹ s⁻¹; in the test with Human PD-1 ECD-His, 770000 M⁻¹ s⁻¹. Further, the EC50 in test [2] was determined as 0.0423 µg/mL; in test [3] it was 0.0337 µg/mL; in test [5], 0.018 µg/mL; in test [6], 0.0077 µg/mL. The “EC50 for induction of PD-1 and LAG-3 dimerization (enzyme fragment complementation, luminescence)” value in test [4] stood at 2.47 nM.
